Results from patent US7888090B2, “Mutants of O6-alkylguanine-DNA alkyltransferase” (Ecole Polytechnique Federale de Lausanne, priority 2004, dated 2011).

Tests used:
[1] = Activity assay with biotinylated O^6-benzylguanine (BG-Bt), Western blotting; type: biochemical; settings: statement in words
Method: Activity towards O^6-benzylguanine substrates is measured as described by Juillerat et al., Chem Biol 10:313-317, 2003.
Activity assay: Purified mutated GST-AGT is incubated in vitro with a biotinylated O^6-benzylguanine (BG-Bt, substance 3a of Juillerat et al., Chem Biol 10:313-317, 2003). In a total reaction volume of 80 […]I, 0.2 µM GST-AGT are incubated with 1 µM substrate in 50 mM HEPES pH 7.2 and 1 mM DTT at room temperature. At several points of time an aliquot is quenched with 1 mM O^6-benzylguanine (Sigma) in SDS-Laemmli buffer and subjected to Western blotting analysis (neutravidin-peroxidase conjugate (PIERCE), Renaissance reagent plus (NEN)). The intensity of the corresponding bands is quantified by a Kodak Image Station 440.

[2] = Expression yield of soluble GST-AGT fusion protein; design: species or system E. coli; settings: comparator not stated
Method: Expression yield is measured in E. coli or in any other of the standard production cells for genetically modified proteins, e.g. yeast, or preferably insect cells, CHO cells or HeLa cells. For quantifying expression yield, AGT fusion proteins may be chosen such that the fusion partner allows easy purification and quantification. For example, expression yield in E. coli is determined by measuring and comparing the yield of soluble and insoluble GST-wild type AGT fusion protein and GST-mutant AGT fusion protein from parallel E. coli expression cultures. Samples of the soluble fractions and insoluble fractions (i.e. the inclusion bodies) after cell lysis are subjected to SDS-PAGE, and the band staining intensities of the corresponding AGT fusion proteins are compared. Soluble protein is quantified after purification of the fusion protein from cell extracts by affinity chromatography (e.g. for GST-AGT fusion proteins by glutathione sepharose) by subjecting the purified fractions to a protein concentration assay (Bradford, Anal Biochem 72:248-54, 1976). The expression yield of similar proteins in the soluble fraction (difference in point mutations) can be used as a measure for protein stability in the unpurified as well as the purified state (Ohage et al., J Mol Biol 291:1119-1128, 1999; Wirtz et al., Protein Sci 8: 2245-50, 1999). Therefore, this is taken as a measure of folding stability and aggregation tendency.
Protein expression from this vector is carried out in E. coli strain BL21. An exponentially growing culture is induced with 0.5 mM IPTG, and the expression is carried out for 3.5 h at 24° C.
Purification: The harvested cells are resuspended in a buffer containing 50 mM phosphate, 0.5 M NaCl, 1 mM DTT, supplemented with 1 mM PMSF and 2 μg/ml aprotinin, and disrupted by lysozyme and sonification. The cell debris are separated by centrifugation at 40000×g. The extract is applied to pre-equilibrated glutathione sepharose (Amersham) which is then washed with 20 bed volumes (50 mM phosphate, 0.5 M NaCl, 1 mM DTT). The mutated GST-AGT fusion protein is eluted with 10 mM reduced glutathione in 50 mM Tris·HCl pH 7.9. The purified protein is dialyzed against 50 mM HEPES pH 7.2; 1 mM DTT; 30% glycerol and then stored at −80° C.
Determination of protein yield: Purity and relative amounts of the GST-AGT fusion proteins are compared by running samples on SDS-PAGE. UV spectra of the pure fractions are recorded using a Perkin Elmer Lambda 10. For protein samples containing no significant amount of DNA, the extinction at 280 nm as a measure of protein content is compared to that of wild type hAGT or PGEG-hAGT that were purified under the same conditions.

[3] = Periplasmic expression / stability under oxidizing conditions; design: species or system E. coli
Method: The activities towards AGT substrates are measured after purification without addition of reducing agents such as dithiothreitol or beta-mercaptoethanol. Alternatively, the activities of mutant AGT and wild type human are compared after their export into cellular compartments with oxidising redox potential (e.g. the periplasm of E. coli due to their fusion to appropriate signal sequences. Activity towards AGT substrates under reducing and oxidising conditions is compared by performing the reactions in the presence or absence of reducing agents such as dithiothreitol or beta-mercaptoethanol.
The mutant AGT gene of Example 1 is amplified and cloned as described in Example 1 with the oligonucleotides SEQ ID NO:3, SEQ ID NO:10 and SEQ ID NO:4, SEQ ID NO:9 causing the further mutation Cys62Ala in the gene upon their incorporation by PCR. Protein expression, purification and determination of yield is carried out as described in Example 1. The mutant gene is PCR amplified with the primers SEQ ID NO:11, SEQ ID NO:12 that contain SfiI restriction sites to subclone the gene in fusion to the g3 protein of filamentous phage in the vector pAK100 (Krebber et al., J Immunol Methods 201:35-55, 1997). […] The supernatant is directly subjected to quantification of protein yield via SDS-PAGE and activity assays as described in Example 1.
Stability under oxidizing conditions: The mutant gene is PCR amplified with the primers SEQ ID NO:11 and SEQ ID NO:28 to subclone the gene into pAK100, as described in Example 2. […] To compare the reactivity of […] (Juillerat et al., Chem Biol 10:313-317, 2003) and the mutant, samples are incubated with 1 µM BG-Bt for 50 min, quenched with SDS-Laemmli buffer and analyzed by western blotting using neutravidin peroxidase conjugate (Pierce) or a monoclonal mouse anti-FLAG IgG antibody (M2, Sigma) and a secondary anti-mouse-IgG::HRP conjugate, and Renaissance reagent plus (NEN). […] The anti-FLAG IgG antibody is used to estimate the total amount of soluble AGT protein, whereas neutravidin quantifies the reactive portion of it. […]

[4] = Competition of N^9-substituted and N^9-unsubstituted O^6-benzylguanine substrates; type: biochemical; settings: comparator not stated
Method: Such N^9-substituted O^6-alkylguanine substrates are the natural substrates of the wild type AGT. The ability of wild type AGT or mutant AGT to react with N^9-modified O^6-alkylguanine substrates is measured as the rate of its reaction with such substrates, e.g. with the low molecular weight N^9-cyclopentyl-O^6-benzylguanine in presence of biotinylated N^9-unsubstituted O^6-alkylguanine substrates in competition experiments. Subsequently, samples are subjected to Western blotting and detection with streptavidin derivates to obtain kinetic constants for these substrates. Alternatively, the reactivity towards such substrates is measured as the inhibition of the reaction of AGT with BG-Cy3. The reaction of AGT with BG-Cy3 is followed by an increase of Cy3 fluorescence intensity upon binding to AGT, after preincubation or in direct competition with the N^9-modified O^6-alkylguanine substrate.
Selected AGT mutants are subcloned into pGEX2T, expressed, purified and characterized as described in Example 1. Discrimination between N^9 substituted and N^9 unsubstituted O^6-benzylguanine substrates is evaluated by competition experiments for purified mutated GST-AGT in vitro with N^9-substituted and N′-unsubstituted O^6-benzylguanine. Aliquots of 0.2 μM GST-AGT are incubated with varying concentrations of N^9 substituted substrate (0, 0.5, up to 100 µM) and 0.5 µM biotinylated O^6-benzylguanine (BG-Bt, substance 3a of Juillerat et al., Chem Biol 10:313-317, 2003) in 50 mM HEPES pH 7.3 and 1 mM DTT at room temperature. After 45 min reactions are quenched by the addition of SDS-Laemmli buffer and heat denaturation. Samples are subjected to SDS-PAGE and Western blotting analysis (neutravidin-peroxidase conjugate (PIERCE), Renaissance reagent plus (NEN)). The intensity of the corresponding bands is quantified by a Kodak Image Station 440.

B1: Cys62Ala, Gln115Ser, Gln116His, Lys125Ala, Ala127Thr, Arg128Ala, Cys150Asn, Ser151Ile, Ser152Asn, Asn157Gly, Ser159Glu, truncated after Gly182: particularly preferred hAGT mutant with the listed … (protein, UniProt P16455 1-207, looked up, variant C62A Q115S Q116H K125A A127T R128A C150N S151I S152N N157G S159E del183-207)
Methylated-DNA--protein-cystei …: MDKDCEMKRTTLDSPLGKLELSGCEQGLHEIKLLGKGTSAADAVEVPAPAAVLGGPEPLMQATAWLNAYFHQPEAIEEFPVPALHHPVFQQESFTRQVLWKLLKVVKFGEVISYSHLAALAGNPAATAAVGGAMRGNPVPILIPCHRVVNINGAVGGYEGGLAVKEWLLAHEGHRLGKPGLG
activity towards O^6-benzylguanine substrates [1]: increased reactivity | expression yield in E. coli [2]: increased expression yield | sensitivity to oxidation [3]: reduced sensitivity to oxidation | reduced reactivity towards O^6-alkyl-N^9-deoxyribosylguanine or N^9-cyclopentyl-O^6-benzylguanine [4]: retain reactivity
